The target in assay [1] is T1, SARNP-mut2 (R153A/F157A/R177A/F181A/R203A/F207A) (human, UniProt P82979 1-210, R153A | F157A | R177A | F181A | R203A | F207A).
T1 sequence (looked up): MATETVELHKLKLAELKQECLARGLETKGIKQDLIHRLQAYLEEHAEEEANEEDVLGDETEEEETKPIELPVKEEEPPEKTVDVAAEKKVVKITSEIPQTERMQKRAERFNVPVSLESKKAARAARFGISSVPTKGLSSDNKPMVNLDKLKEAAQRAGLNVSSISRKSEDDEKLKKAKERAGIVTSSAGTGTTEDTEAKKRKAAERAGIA
Nature of the assay: MST.

The next assay addresses T2, SARNP (residues 1-210) (human, UniProt P82979 1-210).
T2 sequence (looked up): T1 sequence (looked up) with A153R, A157F, A177R, A181F, A203R, A207F
Put plainly: MST.

In the next assay the target is DDX39B (residues 44-428) (human, UniProt Q13838 44-428). Put plainly: crystal structure.

Residue numbers refer to the chain shown, from its start.

B1: DDX39B-CTD (residues 259-428) (domain or fragment, human, UniProt Q13838 259-428, looked up)
chain: LHGLQQYYVKLKDNEKNRKLFDLLDVLEFNQVVIFVKSVQRCIALAQLLVEQNFPAIAIHRGMPQEERLSRYQQFKDFQRRILVATNLFGRGMDIERVNIAFNYDMPEDSDTYLHRVARAGRFGTKGLAITFVSDENDAKILNDVQDRFEVNISELPDEIDISSYIEQTR
B1: the values for the concentration for a half-maximal effect (EC50) (in assay [1]; in the assay with SARNP (residues 1-210)) were 3000 nM and 1300 nM, respectively.

B2: Tho1 (residues 123-178) (domain or fragment, S. cerevisiae, UniProt P40040 123-178, looked up)
chain: EEIKAKALDLLNKKLHRANKFGQDQADIDSLQRQINRVEKFGVDLNSKLAEELGLV
Consider B2, for which the binding result with DDX39B (residues 44-428) is “binds”.

Usually EC50 stands for the concentration that produces a half-maximal response. Read a high EC50 as a less potent agent.

For the origin of these results see publication PMC10508174 (Cell reports, 2023).
